No end group written: not given here.
T1: TCF19 (DDCAC) PHD (UniProt Q9Y242 296-342)
T1 sequence: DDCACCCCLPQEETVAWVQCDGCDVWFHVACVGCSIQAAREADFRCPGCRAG


Key:
[1] = target: TCF19 PHD C324A (UniProt Q9Y242); test: NMR titration
[2] = target: TCF19 PHD R330Y (UniProt Q9Y242); test: NMR titration
[3] = target: TCF19 PHD W307Y (UniProt Q9Y242); test: NMR titration
[4] = target: T1, TCF19 (DDCAC) PHD; test: other fluorescence titration

Kd [1]	Kd [2]	Kd [3]	Kd [4]	Molecule
440 µM	400 µM	2000 µM	–	H3K4me3 peptide (residues 1-12) (from UniProt P68431 2-13)
–	–	–	4.7 µM	ARTK(Me3)QTARKSTG (peptide, UniProt P68431 2-13, looked up) [H3K4me3 peptide (residues 1-12)]

Source: article PMC11540549 (Biochemistry, 2019)
